The text below walks through data of publication PMC7900760, “Perilipin 5 S155 phosphorylation by PKA is required for the control of hepatic lipid metabolism and glycemic control” (Journal of Lipid Research, 2021).

Assay [1] concerns the target T1, ATGL-CFP (adipose triglyceride lipase fused to CFP) (UniProt Q8BJ56 1-486).
T1 construct: Adipose triglyceride lipase (ATGL); source: HeLa cells, transiently transfected (Lipofectamine 3000), in live cells
T1 sequence (looked up): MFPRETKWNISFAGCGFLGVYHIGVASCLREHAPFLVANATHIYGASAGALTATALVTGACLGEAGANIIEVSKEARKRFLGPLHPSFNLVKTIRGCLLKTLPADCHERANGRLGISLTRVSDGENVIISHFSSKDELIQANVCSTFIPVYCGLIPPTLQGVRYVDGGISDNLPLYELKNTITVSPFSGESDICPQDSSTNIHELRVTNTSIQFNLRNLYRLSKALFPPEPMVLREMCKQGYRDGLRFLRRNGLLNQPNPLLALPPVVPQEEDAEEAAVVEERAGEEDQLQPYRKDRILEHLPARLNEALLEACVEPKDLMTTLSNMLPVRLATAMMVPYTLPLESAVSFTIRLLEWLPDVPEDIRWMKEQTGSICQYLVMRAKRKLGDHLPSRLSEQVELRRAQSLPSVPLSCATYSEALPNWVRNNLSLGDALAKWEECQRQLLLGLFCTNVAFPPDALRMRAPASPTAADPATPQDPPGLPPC
Kind of assay: FRET or BRET; phasor-based FLIM-FRET in live HeLa cells transiently co-transfected with a CFP donor (ATGL-CFP or ABHD5-CFP) and a YFP acceptor (PLIN5-YFP or PLIN5 S155A-YFP); 37°C, 5% CO2; before and after 20 μM forskolin. The note with it: partners not purified. (In general: BRET reads energy transfer from a luciferase to a nearby fluorophore.)

Assay [2] has as its target T2, ABHD5-CFP (α-β hydrolase domain-containing 5 fused to CFP) (UniProt Q9DBL9 1-351).
T2 construct: α-β hydrolase domain-containing 5 (ABHD5, also known as CGI-58); also called CGI-58; source: HeLa cells, transiently transfected (Lipofectamine 3000), in live cells
T2 sequence (looked up): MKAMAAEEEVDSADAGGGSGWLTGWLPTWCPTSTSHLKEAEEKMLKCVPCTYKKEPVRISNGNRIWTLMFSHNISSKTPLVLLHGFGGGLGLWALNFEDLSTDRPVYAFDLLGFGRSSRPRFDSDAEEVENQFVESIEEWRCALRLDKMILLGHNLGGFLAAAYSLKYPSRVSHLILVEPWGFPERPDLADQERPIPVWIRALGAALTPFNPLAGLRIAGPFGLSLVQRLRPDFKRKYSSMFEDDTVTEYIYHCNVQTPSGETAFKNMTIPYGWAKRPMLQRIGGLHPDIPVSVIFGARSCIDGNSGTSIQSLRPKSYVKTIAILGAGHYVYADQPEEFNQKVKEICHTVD
The description is as above. The note with it: partners not purified.

Residue numbers refer to the chain shown, from its start. Numbers in names are those of the source.

B1: PLIN5-YFP (perilipin 5 fused to YFP) (natural protein, mouse, UniProt Q8BVZ1 1-463, looked up)
chain: MDQRGEDTTLAPHSRMSGDQTAQDPGSSLGELDQQNVVNRVVALPLVKATCTAVSSAYNSAKDRHPLLGSACRLAEHCVCSVTTCALDHAQPLLEHLQPQLATVNDLACRGLDKLEEKLPFLQQPSDMVVTSAKDTVAKSVTGMVDLAQRGRRWSGELRRSMSQAMDMVLGKSEKLVDRFLPMTEAELAVLAAEAEGPEVGTVEEQRQQQGYFVRLGSLSARLRHLAYEHSLGKLRQSKHRTQEMLAQLQETLELIQHMQRGASPSPTFHPPKTQELWGSWSPCLENGRSHSEVELETLALSRSLTLELQNAVDALAGCVRGLPPSAQAKVAEVQRSVDALQATFADAHCLGDVAPTALAEGRGSVARAHACVDEFLDLVLRAMPLPWLVGPFAPILVEQSEPLINLATCVDEVVGDPDPRWAHMDWPAQKRAWEAESADPGGQEAEPPRGQGKHTMMPELDF
notes: Perilipin 5 (PLIN5), murine; also called wild-type PLIN5; source: HeLa cells, transiently transfected (Lipofectamine 3000), in live cells
As for B1, the FRET efficiency in assay [1] turned out to be 20%; in assay [2] it was 25%.

B2: PLIN5 S155A-YFP (natural protein, mouse, UniProt Q8BVZ1 1-463, looked up)
chain: B1 chain with S155A
notes: Perilipin 5 (PLIN5), murine, with the phosphorylation-defective S155A mutation; also called phospho-mutant S155A; source: HeLa cells, transiently transfected (Lipofectamine 3000), in live cells
In the case of B2, the values for the FRET efficiency in assay [1] and in assay [2] were 20% and 25%, respectively.
